Data published in publication PMC6615629, “Hsp70-nucleotide exchange factor (NEF) Fes1 has non-NEF roles in degradation of gluconeogenic enzymes and cell wall integrity” (PLoS Genetics, 2019).

Legend:
Details in all cases: both partners purified
Ssa1 = target: T1, Ssa1 (yeast (S. cerevisiae), UniProt P10591 1-642); test: pull-down; GST-Fes1 (wild type or mutant, or GST alone) pulled down on glutathione resin; reactions with two or all three proteins; 6 μg each of His6-Fbp1 (1.6 μM), Hsp70 (0.9 μM) and GST-Fes1 (1.09 μM), with or without ATP, ADP or AMP (2.5 mM); 50 mM Tris-HCl pH 7.5, 150 mM NaCl, 2% glycerol, 5 mM MgCl2; 30 min at 4°C; stained SDS-PAGE gels
T1 construct: Ssa1, yeast cytosolic Hsp70; non-tagged; also called Hsp70; source: E. coli Rosetta 2(DE3), purified as described [51]

Ssa2 = target: T2, Ssa2 (yeast (S. cerevisiae), UniProt P10592 1-639); test: as above
T2 construct: Ssa2, yeast cytosolic Hsp70; non-tagged; also called Hsp70; source: E. coli Rosetta 2(DE3), purified as described [51]

His6-Fbp1Δ2–12 = target: T3, His6-Fbp1Δ2–12 (yeast (S. cerevisiae), UniProt P09201 1-348, Δ2–12); test: pull-down; His6-Fbp1 (wild type or mutant) pulled down on Talon metal affinity resin; reactions with two or all three proteins; 6 μg each of His6-Fbp1 (1.6 μM), Hsp70 (0.9 μM) and GST-Fes1 (1.09 μM), with or without ATP, ADP or AMP (2.5 mM); 50 mM Tris-HCl pH 7.5, 150 mM NaCl, 2% glycerol, 5 mM MgCl2; 30 min at 4°C; washed with 5 mM imidazole, eluted with 250 mM imidazole; stained SDS-PAGE gels, bands quantified …
T3 construct: Fbp1, yeast gluconeogenic enzyme, lacking amino acid residues 2–12; the initiator methionine is counted as residue 1; source: E. coli expression, purified; not shown: His6, N-terminal, kept
T3 sequence (looked up): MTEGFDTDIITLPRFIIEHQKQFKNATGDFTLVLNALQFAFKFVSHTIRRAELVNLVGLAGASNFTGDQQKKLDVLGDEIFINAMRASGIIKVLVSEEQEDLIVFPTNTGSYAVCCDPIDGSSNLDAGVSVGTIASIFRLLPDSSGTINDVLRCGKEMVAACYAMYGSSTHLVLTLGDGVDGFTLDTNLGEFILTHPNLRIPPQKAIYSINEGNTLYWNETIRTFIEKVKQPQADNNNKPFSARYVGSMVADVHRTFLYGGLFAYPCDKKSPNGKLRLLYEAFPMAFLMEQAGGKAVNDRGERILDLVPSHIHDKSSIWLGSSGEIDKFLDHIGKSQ

His6-Fbp1 P2A = target: T4, His6-Fbp1 P2A (yeast (S. cerevisiae), UniProt P09201 1-348, P2A); test: as above
T4 construct: Fbp1, yeast gluconeogenic enzyme, P2A; the initiator methionine is counted as residue 1; source: E. coli expression, purified; not shown: His6, N-terminal, kept
T4 sequence (looked up): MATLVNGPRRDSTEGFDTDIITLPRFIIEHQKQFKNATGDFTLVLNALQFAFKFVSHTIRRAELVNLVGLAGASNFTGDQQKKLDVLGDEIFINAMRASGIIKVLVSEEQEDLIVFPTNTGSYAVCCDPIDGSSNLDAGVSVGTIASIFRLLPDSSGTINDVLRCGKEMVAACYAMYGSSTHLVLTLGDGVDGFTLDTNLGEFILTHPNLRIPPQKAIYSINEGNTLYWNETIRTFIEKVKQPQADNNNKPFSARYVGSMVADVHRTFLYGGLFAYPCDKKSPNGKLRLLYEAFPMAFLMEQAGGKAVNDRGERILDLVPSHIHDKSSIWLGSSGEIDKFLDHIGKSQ

His6-Fbp1^P2A,S12A,T13A = target: T5, His6-Fbp1^P2A,S12A,T13A (yeast (S. cerevisiae), UniProt P09201 1-348, P2A | S12A | T13A); test: as above
T5 construct: Fbp1, yeast gluconeogenic enzyme, P2A,S12A,T13A; the initiator methionine is counted as residue 1; source: E. coli expression, purified; not shown: His6, N-terminal, kept
T5 sequence (looked up): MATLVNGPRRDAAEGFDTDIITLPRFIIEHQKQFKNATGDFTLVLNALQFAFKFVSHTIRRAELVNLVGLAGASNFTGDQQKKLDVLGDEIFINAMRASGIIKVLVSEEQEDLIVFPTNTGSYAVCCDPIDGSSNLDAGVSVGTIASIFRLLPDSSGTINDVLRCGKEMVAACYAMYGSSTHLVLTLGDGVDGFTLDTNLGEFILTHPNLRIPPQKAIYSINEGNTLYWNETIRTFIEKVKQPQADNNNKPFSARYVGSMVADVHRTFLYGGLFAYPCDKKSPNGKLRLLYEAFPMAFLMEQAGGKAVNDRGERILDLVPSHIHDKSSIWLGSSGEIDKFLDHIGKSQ

Measured: binding result

T1 sequence (P10591 whole entry): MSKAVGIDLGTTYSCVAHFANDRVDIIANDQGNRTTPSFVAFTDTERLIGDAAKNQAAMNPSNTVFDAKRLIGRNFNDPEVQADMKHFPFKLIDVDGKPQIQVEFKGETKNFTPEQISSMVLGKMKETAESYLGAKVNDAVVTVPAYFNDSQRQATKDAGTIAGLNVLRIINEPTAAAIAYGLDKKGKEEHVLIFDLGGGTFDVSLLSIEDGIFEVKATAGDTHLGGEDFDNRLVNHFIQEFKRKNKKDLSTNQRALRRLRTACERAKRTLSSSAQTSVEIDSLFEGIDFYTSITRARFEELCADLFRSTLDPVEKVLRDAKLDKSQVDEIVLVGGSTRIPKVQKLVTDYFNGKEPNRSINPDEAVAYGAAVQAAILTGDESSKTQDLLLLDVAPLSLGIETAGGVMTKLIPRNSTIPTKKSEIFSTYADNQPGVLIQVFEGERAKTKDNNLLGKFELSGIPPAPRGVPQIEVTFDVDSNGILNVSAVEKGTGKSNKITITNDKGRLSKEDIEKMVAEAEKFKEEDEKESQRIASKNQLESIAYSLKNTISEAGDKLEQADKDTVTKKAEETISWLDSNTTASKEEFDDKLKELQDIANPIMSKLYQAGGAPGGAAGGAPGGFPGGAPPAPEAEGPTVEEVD
T2 sequence (P10592 whole entry): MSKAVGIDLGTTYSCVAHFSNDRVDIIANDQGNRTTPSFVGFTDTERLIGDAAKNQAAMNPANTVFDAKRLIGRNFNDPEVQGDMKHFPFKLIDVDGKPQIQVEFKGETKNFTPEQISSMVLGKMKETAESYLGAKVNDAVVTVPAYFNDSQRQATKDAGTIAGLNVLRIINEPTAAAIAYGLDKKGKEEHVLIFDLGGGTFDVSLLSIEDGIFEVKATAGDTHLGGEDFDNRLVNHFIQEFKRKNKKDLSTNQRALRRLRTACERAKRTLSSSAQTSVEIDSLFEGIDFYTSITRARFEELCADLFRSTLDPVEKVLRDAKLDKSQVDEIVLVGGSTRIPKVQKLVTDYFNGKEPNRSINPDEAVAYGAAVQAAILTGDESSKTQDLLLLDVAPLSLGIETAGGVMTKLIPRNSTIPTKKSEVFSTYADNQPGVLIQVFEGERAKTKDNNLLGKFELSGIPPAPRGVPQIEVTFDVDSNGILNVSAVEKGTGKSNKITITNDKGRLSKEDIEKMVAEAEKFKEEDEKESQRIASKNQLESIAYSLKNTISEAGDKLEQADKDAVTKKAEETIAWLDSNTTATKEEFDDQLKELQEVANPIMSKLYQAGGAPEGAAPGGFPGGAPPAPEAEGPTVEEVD

B1: GST-Fes1 (natural protein, yeast (S. cerevisiae), UniProt P38260 1-290, looked up)
chain: MEKLLQWSIANSQGDKEAMARAGQPDPKLLQQLFGGGGPDDPTLMKESMAVIMNPEVDLETKLVAFDNFEMLIENLDNANNIENLKLWEPLLDVLVQTKDEELRAAALSIIGTAVQNNLDSQNNFMKYDNGLRSLIEIASDKTKPLDVRTKAFYALSNLIRNHKDISEKFFKLNGLDCIAPVLSDNTAKPKLKMRAIALLTAYLSSVKIDENIISVLRKDGVIESTIECLSDESNLNIIDRVLSFLSHLISSGIKFNEQELHKLNEGYKHIEPLKDRLNEDDYLAVKYVL
notes: Fes1, yeast Hsp70 nucleotide exchange factor; also called wild type GST-Fes1; source: E. coli expression, purified as described [15]; not shown: GST, N-terminal, kept
binds: Ssa1 | Ssa2 | His6-Fbp1Δ2–12 | His6-Fbp1 P2A | His6-Fbp1^P2A,S12A,T13A
